Test system: K4 kissing-loop RNA reporter
Experiment: apparent KD of K4 kissing-loop reporter; higher = weaker reporter binding
Details: Eterna round: R107
Description: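 RNA-MaP round R107: designed RNA switches with theophylline, tryptophan, arginine or FMN aptamers are transcribed on-chip within common flanks. They are titrated with a labelled K4 kissing-loop RNA reporter in RNA-MaP buffer (100 mM Tris pH 7.5, 80 mM KCl, 4 mM MgCl2), without ligand or with the indicated ligand. Median apparent KD per design.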

[1] = input ligand: theophylline 20 uM
[2] = input ligand: tryptophan 2.4 mM
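Further: bound reporter read as fluorescence of individual clusters on recovered sequencing chips by microscopy, with normalized cluster intensities fitted with a binding model.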

Sequence | apparent KD of K4 kissing-loop reporter (input ligand: FMN 200 uM) | apparent KD of K4 kissing-loop reporter (input ligand: arginine 13.2 mM) | apparent KD of K4 kissing-loop reporter (input ligand: none) | apparent KD of K4 kissing-loop reporter [1] | apparent KD of K4 kissing-loop reporter [2]
AAACAUUGGUCGGAUACCAGUUAGACCGAUAGGUCAAAACUGGAGUGAUGUUCCUAAAAUAACCCUUGGCAGCCGACCGAUGAAA [MAT - Same State Theophlline B - Mod of Eli - D5] | 954 nM | 599 nM | 787 nM | 905 nM | 808 nM
AAACAUUGGUCUGAUACCAGCUGAUCGGAAACGAUCUUGCUGGAGUGAUGUUCCAGGAAAAGCCCUUGGCAGCAGACCGAUGAAA [MAT - Same State Theophlline B - Mod of Eli - D24] | 938 nM | 513 nM | 1030 nM | 715 nM | 962 nM
AAACAUUGGUCUGAUACCAGUUAGACCGAUAGGUCAAAACUGGAGUGAUGUUCCUAAAAUAACCCUUGGCAGCAGACCGAUGAAA [MAT - Same State Theophlline B - Mod of Eli - D4] | 3640 nM | 285 nM | 596 nM | 439 nM | 552 nM
AAACGUUGGUGCGAUACCAGCUGAUCGGAAACGAUCUUGCUGGAGUGAUGUUCCAGGAAAAGCCCUUGGCAGCGCACCGACGAAA [MAT - Same State Theophlline B - Mod of Eli - D26] | 950 nM | 659 nM | 1060 nM | 869 nM | 928 nM
AAAGAUCUUCUAGAAACUAGAAGAUCAAGAGAGGAUAUCCGAAUUCGGAGAAGGCUCGCUAAGUGAUGUUUGGACCCAAAGGGAA [AK3.1 SS FMN A] | 1100 nM | 984 nM | 1180 nM | 753 nM | 1130 nM
AAAGUGUCAGCACGAGUGAUGUUCGACGAUACCAGCCUCGAUAGAGGCCCUUGGCAGCGUAAACCAAGGGCUGGCACAAAAUAAA [#SwitchBubble 6 #K4Early] | 1050 nM | 975 nM | 1350 nM | 439 nM | 1360 nM
AAAUAUUCGAGUGAUGUUCGAUAAAUAUCAGAGGAUAUGCUUAAAAGCAGAAGGCUGUAUUUCUAUUUGUUAUGUAAUUUUAUAA [JR_SSFMNA_Sub021] | 125 nM | 160 nM | 135 nM | 154 nM | 91.4 nM
AAAUGACAAGUAAUAAAGAAAAGCGGCGAUACCAGUAAGAACGUAUACCCUUGGCAGCGCAUAUUAGAGUGAUGUUCUAAUCCGA [theeternabot_sameState_KL_Theo_A_25] | 129 nM | 174 nM | 148 nM | 220 nM | 99.3 nM
AACGCUGGAUGAAUAACAUCUAGCGAAAUUCGAGGACCGGUACGGCCGCCACUCGAGCUAACUGCGAGUGAUGUUCGAUAAUAAA [Mat - Mod of OpenEnded 3 - D5] | 228 nM | 466 nM | 327 nM | 469 nM | 71.4 nM
AACUGUCAAGGACAACAUUACUGCAGUGAUACCAGCAUCGAAAGAUGCCCUUGGCAGCACCAACUUGCAGUGAUGUUGCAAGUAA [BrourdMod 5 - Jieux - Exclusion - Theophylline A] | 241 nM | 203 nM | 216 nM | 188 nM | 220 nM
AACUUAAUUUAUAAGCAGUGAUGUUGCUCACGAGGACCGGUACGGCCGCCACUCGAUCGGACUUAGGUCUUCAAUUAUUUCAUUA [JR_ExcTryptoA_Sub017] | 149 nM | 192 nM | 163 nM | 199 nM | 145 nM
AAGAGCUAGGCGGCCGCCACUAGUUGUGAACACGUACAAGCCAGUGAUGUUGGUAUGAUGGACGGUAGGACCGGGCCUAGCUGAA [Exclusion - Tryptophan B (Freestyle 14)] | 227 nM | 271 nM | 276 nM | 267 nM | 294 nM
AAGCAGUCACUCGACGCCAUCGAAGAUGGGCGAGGACCGGUACGGCCGCCACUCGGAGUGAUGUUCUGAUGACUGCAAAAUAAAA [MatMod 8 - Jieux - Exclusion - Tryptophan A] | 119 nM | 52.7 nM | 118 nM | 156 nM | 94.3 nM
AAGGCAUUCAGAAGGAGCGUGGUUUAAUCAUUAAUAUUUUUUACGAGUGAUGUUCGUAAUUCACAGGUAGGUCGCUGAAUAAUAA [JR_ExcArginiB_Sub008] | 123 nM | 136 nM | 128 nM | 134 nM | 114 nM
AAGGCCAGUGAUGUUGGCUUAACCUUCGAUACCAGAACCGAUCGUUUCCCUUGGCAGCGAACACAAUACCUCACAGCGUUAAGUA [theeternabot_sameState_KL_Theo_A_8] | 125 nM | 134 nM | 125 nM | 149 nM | 114 nM
AAGGCGUCGAGUUUGGUGGCGCCAACAGAUACCAGAUUACCUCCAAUCCCUUGGCAGCUGGCUUGAGAGUGAUGUUUUCAAAAGU [theeternabot_sameState_KL_Theo_A_33] | 532 nM | 447 nM | 627 nM | 528 nM | 349 nM
AAGGGCUAGGCGGCCGCCACUGGUUGUGAACACAUACGAGCCAGUGAUGUUGGUAUUGUGUGCGGCAGGACCGGGCCUAGCCGAA [Exclusion - Tryptophan B (Freestyle 23)] | 360 nM | 299 nM | 346 nM | 300 nM | 322 nM
AAGGUAUCACCAACUUGUAACAUAGGUGAUACCAGCAUCGAAAGAUGCCCUUGGCAGCACCAACUUGCAGUGAUGUUGCAAGUAA [(T)'-(H)'-(T1)-(T2)-(H1)-(H2)_Design11] | 166 nM | 140 nM | 152 nM | 152 nM | 144 nM
AAGGUCACCACUACAGUGAUGUUGUAGGAGCAGGAUAUGCAGAAAUGCAGAAGGGCUCGCUCCAGGUGACCGAAUGAAACAUUCA [Omei KL FMN A SS A v4] | 217 nM | 341 nM | 382 nM | 325 nM | 381 nM
AAGGUCACUGCUACAGUGAUGUUGUGGGAGCAGGAUAUGCAGAAAUGCAGAAGGGCUCGCUCCAGGUGACCGAAUGAAACAUUCA [whbob_SS_FMNA__2th175] | 1070 nM | 826 nM | 1500 nM | 887 nM | 1000 nM

Sequence | apparent KD of K4 kissing-loop reporter (input ligand: FMN 200 uM) | apparent KD of K4 kissing-loop reporter (input ligand: arginine 13.2 mM) | apparent KD of K4 kissing-loop reporter (input ligand: none) | apparent KD of K4 kissing-loop reporter [1] | apparent KD of K4 kissing-loop reporter [2]
AAGGUUGUGCAUGGGAGUGAUGUUCCCAAGCAGGAUAUCGCUCACGCGAGAAGGGCUAGCACAACCGCUCAAGAAACUUGAGCAA [Omei KL FMN A SS C v5] | 121 nM | 118 nM | 147 nM | 132 nM | 120 nM
AAGUACACGAUAGUGUACACCUAGUGAUGUUAGGAUAUGCAGAUAUGCAGAAGGAACGAGUCAUCUGACAAUAGUCGGAUGACAA [FmnAX 8 #OpenEnded #K4Early] | 564 nM | 70.2 nM | 100 nM | 103 nM | 82.4 nM
AAGUCUCGUUAAUUCGAGGUUGCGAUCGAUACCAGUAGCGAGAGGUACCCUUGGCAGCGAAGUGAGUGAUGUUCAUGAAAGAAGA [KL-XTheoA13] | 59.8 nM | 101 nM | 107 nM | 113 nM | 68.6 nM
AAGUGUCAUUAGACACACUGAUGUAUAAACUAGGAUAUGCUGAUAAGCAGAAGGAGUGAUGUUCCUUUCAACAUCAGAAUUAAAU [KL-XFMN-A1] | 270 nM | 145 nM | 155 nM | 153 nM | 126 nM
AAGUGUGUGGCGGCCGCCACUAGAAUCCAGUGAUGUUGGAGAUAUCUCGUAAGAGAUAUCCGCCAUAGGACCGGGCCAUAUAGAA [Same State - Tryptophan B (Freestyle 15)] | 981 nM | 720 nM | 1260 nM | 413 nM | 771 nM
AAGUGUGUGGCGGCCGCCACUAGAAUCCAGUGAUGUUGGAGUAAUCAAAUAAAUGAUAAUCAACAUAGGACCGGGCCAUAUAGAA [Same State - Tryptophan B (Freestyle 3)] | 345 nM | 307 nM | 349 nM | 351 nM | 309 nM
AAGUGUGUGGCGGCCGCCACUAGGAUCCAGUGAUGUUGGAGAUAUCUCGUAAGAGAUAUCCGCCAUAGGACCGGGCCAUAUAGAA [Same State - Tryptophan B (Freestyle 16)] | 862 nM | 423 nM | 388 nM | 161 nM | 176 nM
AAGUGUGUGGCGGCCGCCACUAGUAUCCAGUGAUGUUGGAGAUAUCACGUAAGUGAUAUCCAACAUAGGACCGGGCCAUAUAGAA [Same State - Tryptophan B (Freestyle 17)] | 145 nM | 78.3 nM | 101 nM | 189 nM | 93.1 nM
AAGUUUUAUAAACUCAUGGUUUCGACAGAUACCAGCUUCGAGAGGAGCCCUUGGCAGCUGCAUGAGUGAUGUUCAUGUACGAAGA [KL-XTheoA8] | 377 nM | 362 nM | 480 nM | 416 nM | 359 nM
AAUAAAAUCACGGCCGCCACUGAUGCUAAUAUUGGCAGUGAUGUUGCUAUGUAUAUUUUAUUUGACAGGACCGGGUGAAUAUUUA [#24 K4 Tryptophan B Exclusion] | 224 nM | 198 nM | 245 nM | 263 nM | 137 nM
AAUAAAAUCACGGCCGCCACUGAUGUUAAUAUUAGCAGUGAUGUUGCUAUGUCGUUUUUCUUUAACAGGACCGGGUGAAUAUUUA [#22 K4 Tryptophan B Exclusion] | 156 nM | 150 nM | 170 nM | 171 nM | 148 nM
AAUAAAAUCACGGCCGCCACUGAUUAUUUUAUUAGGAGUGAUGUUCCUAUGACAGUAUGCCUUAACAGGACCGGGUGAAUAUUUA [#19 K4 Tryptophan B Exclusion] | 122 nM | 125 nM | 144 nM | 143 nM | 156 nM
AAUAAGGUCGCCGAUACCAGCGCGGGCAGAGCAAAGCUCUGCCCGGUAGUGAUGUUACCGCGCCCUUGGCAGCGGUGGCACGACC [Omei KL Theo B SS C v6] | 152 nM | 58.3 nM | 126 nM | 159 nM | 63.3 nM
AAUAAUAAUAAAUAUAGAUUGAUGAGCAAACGAGGACCGGUACGGCCGCCACUCGAGUGAUGUUCGAGAAGCUCAUCAAUCAUAA [AK4.6 Exc Tryptophan A] | 180 nM | 131 nM | 141 nM | 141 nM | 372 nM
AAUAAUCUAGGUGAUACCAGCUCAACAUGAGUGAUGUUCGUGAGCUAAUGUAGAGUUGAGAGCCCUUGGCAGCACCUAGAUAAUA [KL-SSTheoB7] | 698 nM | 552 nM | 943 nM | 1140 nM | 626 nM
AAUAUCUAGUAUAUUUUUAAUAAAACAGAUACCAGUGAUAAUAGACACCCUUGGCAGCUGGUCGAGUGAUGUUCGUUUAUUUUAA [JR_SSTheophyA_Sub005] | 82.5 nM | 79.5 nM | 105 nM | 168 nM | 60 nM
AAUCAAUACAGAAGGAGCGUGACAGUUGCGAGUGUAAUUUUAGCUAGUGAUGUUAGCAUUUCACAGGUAGGUCGCUGUACAUUUA [#05 K4 Arginine B Same State] | 115 nM | 134 nM | 133 nM | 140 nM | 105 nM
AAUCGCGAGUCAGAUACCAGUUGGCUCGAGAGUCAGUGAUGUUGAUGUAAAUCUUAGGCGAACCCUUGGCAGCUGUCACCAGUCC [theeternabot_sameState_KL_Theo_B_27] | 404 nM | 326 nM | 354 nM | 346 nM | 325 nM
AAUCUCGUCCUGGAUACCAGUCGCACGGUUUGUCAUGUCAGCCAGUGAUGUUGCCUGCAUGACCCUUGGCAGCCAUUCUAUGAAU [theeternabot_exclusion_KL_Theo_B_45] | 284 nM | 230 nM | 311 nM | 334 nM | 246 nM
AAUGAUGAUUGACACAUUUACUAAAAGGAAGGAGCGGCGAUGUGGCCAGGUAGGUCGCCUUUUAGCAGUGAUGUUGCUAUAUGUU [JR_Nu_ExcArginiA_Sub026] | 84.5 nM | 108 nM | 111 nM | 152 nM | 70.4 nM
